According to patent publication US20230212239A1, “INHIBITORS OF CBL AUTOINHIBITION AND RELATED METHODS” (THE HOSPITAL FOR SICK CHILDREN, priority 2020, published 2023):
Numbering of substitutions follows the chain as printed.

Legend:
CBL (47-357) A223R = target: T1, CBL (47-357) A223R (UniProt P22681 47-357); experiment: Ni-NTA co-purification, low salt (0.15 M NaCl), Coomassie SDS-PAGE
T1 construct: range 47-357; Point mutant within Duet-His-Δlinker-hSLAP2-CBL; also called A223R (CBL mutant)
T1 sequence (looked up): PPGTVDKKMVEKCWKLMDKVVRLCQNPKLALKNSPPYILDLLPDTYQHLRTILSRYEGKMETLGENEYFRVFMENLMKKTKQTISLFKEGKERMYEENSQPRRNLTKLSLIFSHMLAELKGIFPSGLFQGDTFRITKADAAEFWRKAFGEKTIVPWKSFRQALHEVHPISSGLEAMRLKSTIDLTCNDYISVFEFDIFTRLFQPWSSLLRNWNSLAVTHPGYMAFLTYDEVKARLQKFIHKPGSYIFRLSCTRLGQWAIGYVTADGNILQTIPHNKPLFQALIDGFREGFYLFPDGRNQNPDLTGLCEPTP
Procedure: (§1) Cell pellets were resuspended in either high or low salt (as for high salt except 25 mM HEPEs pH 7.5, 150 mM NaCl) lysis buffer and purified as above on Ni-NTA agarose (Qiagen) with wash buffer (25 mM HEPEs pH 7.5, 150 mM NaCl, 2% glycerol, 20 mM imidazole, 10 mM βME). Bead slurry was mixed with SDS 2X loading buffer (125 mM Tris pH 6.8, 4% SDS, 20% glycerol, 0.715 M βME, bromophenol blue), boiled, and analyzed by 10 or 12.5% SDS-PAGE, stained with Coomassie blue.

[1] = target: T2, CBL (47-357), co-expressed from pETDuet-1 MCS2 (UniProt P22681 47-357); experiment: Ni-NTA co-purification from Duet co-expression, high salt (0.5 M NaCl), Coomassie SDS-PAGE
T2 construct: range 47-357; Untagged partner in the Duet co-purification trials; also called CBL TKBD
T2 sequence (looked up): T1 sequence (looked up) with R177A
Procedure: as §1

CBL (47-357) S226E = target: T3, CBL (47-357) S226E (UniProt P22681 47-357); experiment: Ni-NTA co-purification, low salt (0.15 M NaCl), Coomassie SDS-PAGE
T3 construct: range 47-357; Point mutant within Duet-His-Δlinker-hSLAP2-CBL; also called S226E (CBL mutant)
T3 sequence (looked up): T1 sequence (looked up) with R177A, S180E
Procedure: as §1

[2] = target: the molecule itself; experiment: X-ray crystal structure; two SLAP2 helices in the asymmetric unit

B1: Trx-His(6)-Δlinker-hSLAP2 L241R (other)
chain: EAERSKATAVALGSFPAGGPAELSLRLGEPLTIVSEDGDWWTVLSEVSGREYNIPSVHVAKVSHGWLYEGLSREKAEELLLLPGNPGGAFLIRESQTRRGSYSLSVRLSRPASWDRIRHYRIHCLDNGWLYISPRLTFPSLQALVDHYSELADDICCLLKEPCVLQRAGPLPGKDIPLPVTVQRTPLNWKELDSSLLFSEAATGEESLLSEGRRESLSFYISLNDEAVSLDDA
notes: Point mutant within Duet-His-Δlinker-hSLAP2-CBL; not shown: N-terminal thioredoxin (Trx)-His(6)-TEV-site tag and linker of the modified pET32a (Δlinker version)
B1: no binding (CBL (47-357) A223R); no binding [1].

B2: Trx-His(6)-Δlinker-hSLAP2 S244E (other)
chain: B1 chain with R213L, S216E
notes: as for B1
B2: no binding (CBL (47-357) S226E).

B3: Trx-His(6)-Δlinker-hSLAP2 L245P (other)
chain: B1 chain with R213L, L217P
notes: Point mutant within Duet-His-Δlinker-hSLAP2-CBL; not shown: N-terminal Trx-His(6)-TEV site fusion of the modified pET32a (Δlinker form)
B3: no binding [1].

B4: mouse SLAP2 (residues 28-259) (other, UniProt Q8R4L0 28-259, looked up)
chain: QPERHKVTAVALGSFPAGEQARLSLRLGEPLTIISEDGDWWTVQSEVSGREYHMPSVYVAKVAHGWLYEGLSREKAEELLLLPGNPGGAFLIRESQTRRGCYSLSVRLSRPASWDRIRHYRIQRLDNGWLYISPRLTFPSLHALVEHYSELADGICCPLREPCVLQKLGPLPGKDTPPPVTVPTSSLNWKKLDRSLLFLEAPASGEASLLSEGLRESLSSYISLAEDPLDDA
notes: range 28-259; Trx-His(6) tag removed with thrombin; In the crystal only residues 237-255 are seen; also called mSLAP2; Trx-His(6)-mSLAP2 (before thrombin cleavage)
B4: binds [2].
